Experimental data reported in publication PMC4053984.

Target: PRDM9Cst (Mus musculus (CAST/EiJ)) (UniProt Q96EQ9)
Assay: EMSA competition
Conditions: 10 mM Tris pH 7.5, 50 mM KCl, 1 mM DTT, 50 ng/ul poly(dI/dC), 0.05% NP-40, 0.5 pmol labelled dsDNA (printed pmol/l), 3 ul E. coli extract in 20 ul, 40 min, 5% …

Sequence of PRDM9Cst (Mus musculus (CAST/EiJ)) (Q96EQ9 whole entry): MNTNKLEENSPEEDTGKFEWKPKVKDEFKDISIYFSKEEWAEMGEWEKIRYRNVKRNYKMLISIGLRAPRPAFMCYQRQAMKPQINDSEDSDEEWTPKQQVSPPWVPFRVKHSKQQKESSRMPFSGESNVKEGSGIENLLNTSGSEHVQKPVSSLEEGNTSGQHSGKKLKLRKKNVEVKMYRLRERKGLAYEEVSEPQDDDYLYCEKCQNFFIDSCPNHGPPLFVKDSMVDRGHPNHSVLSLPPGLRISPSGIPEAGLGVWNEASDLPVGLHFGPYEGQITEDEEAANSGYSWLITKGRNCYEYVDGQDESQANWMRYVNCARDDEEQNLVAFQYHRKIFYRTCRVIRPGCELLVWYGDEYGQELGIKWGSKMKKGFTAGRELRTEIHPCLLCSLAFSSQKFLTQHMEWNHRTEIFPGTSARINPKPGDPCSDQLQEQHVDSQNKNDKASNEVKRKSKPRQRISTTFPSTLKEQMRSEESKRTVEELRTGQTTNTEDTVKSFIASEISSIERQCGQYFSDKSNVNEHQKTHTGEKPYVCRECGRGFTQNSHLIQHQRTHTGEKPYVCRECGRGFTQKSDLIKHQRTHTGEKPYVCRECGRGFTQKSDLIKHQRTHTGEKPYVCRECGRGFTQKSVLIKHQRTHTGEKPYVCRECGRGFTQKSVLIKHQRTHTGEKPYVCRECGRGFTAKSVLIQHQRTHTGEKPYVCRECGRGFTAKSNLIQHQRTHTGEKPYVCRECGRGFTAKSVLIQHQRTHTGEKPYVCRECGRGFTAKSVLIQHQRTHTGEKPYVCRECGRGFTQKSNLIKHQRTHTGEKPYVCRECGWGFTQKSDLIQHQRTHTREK

Sequence | binding signal (scale: reference) | binding signal (fold stronger than CAST sequence)
ATAAGTGTTCAGACTTGGACTCTGCCCTTCCTTTAC (double strand) [Hlx1 36 bp CAST] | 1 | –
ATAGTGTGCAGACTTGGACCCTGCCCTTTCTTTACG (double strand) [Hlx1 36 bp B6] | – | 2.9
